Assay results from article PMC3159463.
Read-outs that look alike come from different tables or passages of the source.

What was measured:
[1] = target: pED208 TraM (plasmid pED208 (transfer-derepressed derivative of the Folac plasmid originally isolated from Salmonella typhi)) (UniProt P33788); test: crystal structure
[2] = target: T1, TraM[F1-55:pED208 56-127] chimera (F plasmid / plasmid pED208 chimera, UniProt P10026 1-55+P33788:56-127, internal_change); test: EMSA
T1 sequence: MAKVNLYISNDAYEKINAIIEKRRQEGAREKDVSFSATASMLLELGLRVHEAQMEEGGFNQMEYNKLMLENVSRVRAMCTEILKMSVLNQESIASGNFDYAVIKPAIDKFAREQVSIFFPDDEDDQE

F TraM [3] = target: T2, F TraM (F plasmid, UniProt P10026 1-127); test: SEC-MALLS
T2 sequence: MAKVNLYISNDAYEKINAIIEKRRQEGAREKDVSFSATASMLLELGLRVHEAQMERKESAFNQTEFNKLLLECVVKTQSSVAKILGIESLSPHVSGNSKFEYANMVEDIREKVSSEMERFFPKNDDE

F TraM [4] = target: T2, F TraM; test: SEC-MALLS; remark: listed apart in the source
[5] = target: T3, pED208 TraM N-terminal domain (plasmid pED208, UniProt P33788 2-52); test: EMSA
T3 sequence: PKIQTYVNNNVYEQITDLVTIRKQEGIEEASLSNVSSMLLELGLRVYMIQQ

pED208 TraM = target: T4, pED208 TraM (plasmid pED208 (IncFV, derivative of …, UniProt P33788 1-127)); test: EMSA
T4 sequence: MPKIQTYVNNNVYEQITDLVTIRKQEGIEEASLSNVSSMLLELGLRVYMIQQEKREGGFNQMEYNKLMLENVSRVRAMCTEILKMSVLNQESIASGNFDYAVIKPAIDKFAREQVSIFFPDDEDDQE

## pED208 TraM (from UniProt P33788 1-127) (natural protein)
[1]
  stoichiometry N: 4

B1: F sbmA 30 bp (dsDNA)
DNA 1: GATACCGCTAGGGGCGCTGCTAGCGGTGCG
DNA 2: CGCACCGCTAGCAGCGCCCCTAGCGGTATC
[2]
  binding result: binds
F TraM [3]
  binding result: binds

B2: F sbmAB 75 bp (dsDNA)
DNA 1: TTATATTAGGGGTGCTGCTAGCGGCGCGGTGTGTTTTTTTATAGGATACCGCTAGGGGCGCTGCTAGCGGTGCGT
DNA 2: ACGCACCGCTAGCAGCGCCCCTAGCGGTATCCTATAAAAAAACACACCGCGCCGCTAGCAGCACCCCTAATATAA
F TraM [4]
  binding result: binds

B3: pED208 sbmA 24 bp (pED 4site, palindromic) (dsDNA)
DNA 1: AGATTCGAATCTAGATTCGAATCT
DNA 2: AGATTCGAATCTAGATTCGAATCT
[5]
  binding signal: ~500 fold lower affinity than full-length
pED208 TraM
  Kd: 4.8 ± 0.7 nM
